Changes are numbered by the printed parent chain. Numbers in names are those of the source. One block for each binder: values may come before it.
Tests used:
[1] = molecular target: T1, human GITR (amino acids M1-V241, NCBI Accession #NP_004186.1) expressed on cells (human, UniProt Q9Y5U5 26-241); assay: cell-based or functional assay
T1 sequence: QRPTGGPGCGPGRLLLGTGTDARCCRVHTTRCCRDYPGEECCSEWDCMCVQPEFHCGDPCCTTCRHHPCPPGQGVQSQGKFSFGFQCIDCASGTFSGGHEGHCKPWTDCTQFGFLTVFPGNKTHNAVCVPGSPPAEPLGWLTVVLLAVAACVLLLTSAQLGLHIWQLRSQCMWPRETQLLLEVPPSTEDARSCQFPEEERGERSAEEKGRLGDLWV

[2] = molecular target: T1, human GITR (amino acids M1-V241, NCBI …); assay: cell-based or functional assay; remark: listed apart in the source
[3] = molecular target: T1, human GITR (amino acids M1-V241, NCBI …); assay: cell-based or functional assay; remark: listed apart in the source
[4] = molecular target: T1, human GITR (amino acids M1-V241, NCBI …); assay: cell-based or functional assay; remark: listed apart in the source
[5] = molecular target: T2, hGITR.mFc (human); assay: SPR 37C, mAb capture
T2 construct: soluble dimeric construct with mouse Fc; also called dimeric human GITR
T2 chain: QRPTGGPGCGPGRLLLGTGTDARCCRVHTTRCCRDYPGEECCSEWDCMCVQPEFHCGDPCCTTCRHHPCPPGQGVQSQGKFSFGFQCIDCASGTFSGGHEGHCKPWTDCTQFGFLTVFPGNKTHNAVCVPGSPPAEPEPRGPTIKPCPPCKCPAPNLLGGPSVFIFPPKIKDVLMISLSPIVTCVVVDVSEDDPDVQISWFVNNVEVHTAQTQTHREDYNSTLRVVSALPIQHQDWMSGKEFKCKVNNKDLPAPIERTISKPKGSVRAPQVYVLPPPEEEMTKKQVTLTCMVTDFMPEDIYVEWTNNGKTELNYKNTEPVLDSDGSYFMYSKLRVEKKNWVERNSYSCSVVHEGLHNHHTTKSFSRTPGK
Procedure: (§1) (Table 3). […] GITR proteins were injected over the sensor surface at a flow rate of 30 μL/minute. All Biacore binding studies were performed in a buffer composed of 0.01M HEPES pH 7.4, 0.15M NaCl, 3 mM EDTA, 0.05% v/v Surfactant P20 (HBS-ET running buffer). Antibody-reagent association was monitored for 4 minutes while dissociation in HBS-ET running buffer (10 mM HEPES, 150 mM NaCl, 3 mM EDTA, 0.05% (v/v) Surfactant P20, pH 7.4) was monitored for 10 minutes. Kinetic association (kₐ) and dissociation (kd) rate constants were determined by fitting the real-time sensorgrams to a 1:1 binding model using Scrubber 2.0c curve fitting software. Binding dissociation equilibrium constants (KD) and dissociative half-lives (t ½) were calculated from the kinetic rate constants as: KD [M]=kd/kₐ; and t_{1/2}(min)=(ln 2/(60*kd). Results are summarized in Table 3.

[6] = molecular target: T3, mfGITR.mmh (Macaca fasicularis); assay: SPR 37C, mAb capture
T3 construct: soluble monomeric construct; also called Macaca fasicularis (mf) GITR.mmh; cynomolgus GITR protein
T3 chain: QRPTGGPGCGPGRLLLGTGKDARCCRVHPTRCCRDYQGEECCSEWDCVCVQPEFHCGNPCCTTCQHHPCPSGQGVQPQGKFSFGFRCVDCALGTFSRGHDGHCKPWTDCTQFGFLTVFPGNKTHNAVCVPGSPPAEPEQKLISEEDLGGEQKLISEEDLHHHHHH
Procedure: as §1

[7] = molecular target: T4, hGITR.mmh (human); assay: SPR 37C, mAb capture
T4 construct: soluble monomeric construct; also called human (h) GITR.mmh; monomeric human GITR
T4 chain: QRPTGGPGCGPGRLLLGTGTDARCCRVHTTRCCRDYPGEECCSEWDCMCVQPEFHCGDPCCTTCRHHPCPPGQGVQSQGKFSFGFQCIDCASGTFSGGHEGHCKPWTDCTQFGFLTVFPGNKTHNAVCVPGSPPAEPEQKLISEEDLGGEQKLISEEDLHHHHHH
Procedure: as §1

[8] = molecular target: T1, human GITR (amino acids M1-V241, NCBI …); assay: ECL cell binding, hGITR/HEK293-D9
Procedure: Nonspecific binding sites were blocked with 2% BSA (w/v)+PBS for 1 h at room temperature (RT). Next, serial dilutions of anti-GITR antibodies, ranging from 1.7 pM to 100 nM, were added to cells for 1 h at RT. Plates were then washed to remove unbound antibodies (AquaMax2000 plate washer, MSD Analytical Technologies) and plate-bound antibodies were detected with a SULFO-TAG™ conjugated anti-human kappa light chain IgG antibody (Jackson Immunoresearch) for 1 h at RT.
Following washes, luminescent signals were recorded with a SECTOR Imager 6000 (MSD) instrument. Direct binding signals (relative light units, RLU) were analyzed as a function of the antibody concentration and data were fitted with a sigmoidal (four-parameter logistic) dose-response model using GraphPad Prism™ software. […] The signal detected with 100 nM antibody binding to the hGITR expressing cells versus parental cells was recorded as an indication of intensity and specificity of GITR binding.

fold activation, T-cell proliferation, plate-bound Ab 10.6 nM, donor 1 [1]: 10 fold
fold activation, T-cell proliferation, plate-bound Ab 10.6 nM, donor 2 [1]: 4 fold
fold activation, T-cell proliferation, plate-bound Ab 10.6 nM, donor 3 [1]: 4 fold
fold activation, T-cell proliferation, plate-bound Ab 10.6 nM, donor 4 [1]: 7 fold
fold activation, T-cell proliferation, plate-bound Ab 10.6 nM, donor 5 [1]: 4 fold
fold activation, T-cell proliferation, plate-bound Ab 10.6 nM, donor 6 [1]: 11 fold
fold activation, T-cell proliferation, plate-bound Ab 10.6 nM, donor 7 [1]: 3 fold
fold activation, T-cell proliferation, plate-bound Ab 10.6 nM, donor 8 [1]: 2 fold
fold activation, T-cell proliferation, plate-bound Ab 10.6 nM, mean [1]: 5 fold
fold activation, T-cell proliferation, 22 nM, non-anchored, donor 1 [2]: 0.7 fold
fold activation, T-cell proliferation, 22 nM, non-anchored, donor 2 [2]: 0.9 fold
fold activation, T-cell proliferation, 22 nM, non-anchored, donor 3 [2]: 0.9 fold
fold activation, T-cell proliferation, 22 nM, non-anchored, donor 4 [2]: 1.4 fold
fold activation, T-cell proliferation, 22 nM, non-anchored, mean [2]: 1 fold
% Activation, NF-kB-Luc, non-anchored [3]: 30%
% Blocking, NF-kB-Luc, non-anchored [3]: 40%
EC50, hGITR activation, NF-kB-Luc, non-anchored [3]: 1.2 nM
IC50, blocking of hGITRL stimulation, NF-kB-Luc, non-anchored [3]: 0.9 nM
fold activation, T-cell proliferation, 33 nM, FcgR anchored, donor 1 [4]: 1 fold
fold activation, T-cell proliferation, 33 nM, FcgR anchored, donor 2 [4]: 0.7 fold
fold activation, T-cell proliferation, 33 nM, FcgR anchored, donor 3 [4]: 1.1 fold
fold activation, T-cell proliferation, 33 nM, FcgR anchored, donor 4 [4]: 1.8 fold
fold activation, T-cell proliferation, 33 nM, FcgR anchored, donor 5 [4]: 1.3 fold
fold activation, T-cell proliferation, 33 nM, FcgR anchored, mean [4]: 1.2 fold
Kd [5]: 0.597 nM
koff [5]: 0.000719 s⁻¹
kon [5]: 1.21e+06 M⁻¹ s⁻¹
t½ [5]: 16.1 min
Kd [6]: 39.3 nM
koff [6]: 0.00507 s⁻¹
kon [6]: 129000 M⁻¹ s⁻¹
t½ [6]: 2.3 min
Kd [7]: 36.6 nM
koff [7]: 0.00935 s⁻¹
kon [7]: 255000 M⁻¹ s⁻¹
t½ [7]: 1.2 min
Average Signal (RLU) at 100 nM [8]: 6870 RLU
EC50 [8]: 0.45 nM
B1: H4H14508P (antibody, human IgG4, V domains shown)
VH: QVQLVESGGGVVQPGRSLRLSCAASGLTVSSYVMHWVRQAPGKGLEWVAIIWYDGSNKYYGDSVKGRFTISRDNSKKTLYLQMNSLRAEDTAVYYCARGRPLSSSSSDYYGLDVWGQGTTVTVSS
VL: AIQMTQSPSSLSASVGDRVTIICRASQGIRNDLGWYQQKPGKAPNLLIYAASSLQSGVPSRFSGSGSGTDFTLTISSLQPEDFATYYCLQDYNYPWTFGQGTKVEIK
notes: human IgG4 (H4H)

fold activation, T-cell proliferation, plate-bound Ab 10.6 nM, donor 1 [1]: 3 fold
fold activation, T-cell proliferation, plate-bound Ab 10.6 nM, donor 2 [1]: 12 fold
fold activation, T-cell proliferation, plate-bound Ab 10.6 nM, donor 3 [1]: 12 fold
fold activation, T-cell proliferation, plate-bound Ab 10.6 nM, donor 4 [1]: 15 fold
fold activation, T-cell proliferation, plate-bound Ab 10.6 nM, donor 5 [1]: 12 fold
fold activation, T-cell proliferation, plate-bound Ab 10.6 nM, donor 6 [1]: 17 fold
fold activation, T-cell proliferation, plate-bound Ab 10.6 nM, donor 7 [1]: 11 fold
fold activation, T-cell proliferation, plate-bound Ab 10.6 nM, donor 8 [1]: 11 fold
fold activation, T-cell proliferation, plate-bound Ab 10.6 nM, mean [1]: 12 fold
fold activation, T-cell proliferation, 22 nM, non-anchored, donor 1 [2]: 0.9 fold
fold activation, T-cell proliferation, 22 nM, non-anchored, donor 2 [2]: 0.8 fold
fold activation, T-cell proliferation, 22 nM, non-anchored, donor 3 [2]: 1 fold
fold activation, T-cell proliferation, 22 nM, non-anchored, donor 4 [2]: 0.9 fold
fold activation, T-cell proliferation, 22 nM, non-anchored, mean [2]: 0.9 fold
% Activation, NF-kB-Luc, non-anchored [3]: 50%
% Blocking, NF-kB-Luc, non-anchored [3]: 90%
EC50, hGITR activation, NF-kB-Luc, non-anchored [3]: 2.3 nM
IC50, blocking of hGITRL stimulation, NF-kB-Luc, non-anchored [3]: 0.7 nM
fold activation, T-cell proliferation, 33 nM, FcgR anchored, donor 1 [4]: 0.7 fold
fold activation, T-cell proliferation, 33 nM, FcgR anchored, donor 2 [4]: 1 fold
fold activation, T-cell proliferation, 33 nM, FcgR anchored, donor 3 [4]: 0.9 fold
fold activation, T-cell proliferation, 33 nM, FcgR anchored, donor 4 [4]: 1.5 fold
fold activation, T-cell proliferation, 33 nM, FcgR anchored, donor 5 [4]: 1.5 fold
fold activation, T-cell proliferation, 33 nM, FcgR anchored, mean [4]: 1.1 fold
Kd [5]: 0.335 nM
koff [5]: 0.000401 s⁻¹
kon [5]: 1.2e+06 M⁻¹ s⁻¹
t½ [5]: 28.8 min
Kd [6]: 41.1 nM
koff [6]: 0.00243 s⁻¹
kon [6]: 59100 M⁻¹ s⁻¹
t½ [6]: 4.7 min
Kd [7]: 43 nM
koff [7]: 0.0122 s⁻¹
kon [7]: 284000 M⁻¹ s⁻¹
t½ [7]: 0.9 min
Average Signal (RLU) at 100 nM [8]: 5230 RLU
EC50 [8]: 0.23 nM
B2: H4H14469P (antibody, human IgG4, V domains shown)
VH: QVQLVESGGGVVQPGGSLRLSCAVSGFTFSDYGMHWVRQVPGAGLEWVAVIYYEGSNKYYADSVKGRFTISRDNSKNTLYLQMNSLRVEDTSMYFCARGPLLGGNFYSYLMDVWGQGTTVTVSS
VL: B1 VL with I22T, D32G, N45K, A50T, W96F, T97S, Q100P, E105D
notes: human IgG4 (H4H)

fold activation, T-cell proliferation, plate-bound Ab 10.6 nM, donor 1 [1]: 6 fold
fold activation, T-cell proliferation, plate-bound Ab 10.6 nM, donor 2 [1]: 1 fold
fold activation, T-cell proliferation, plate-bound Ab 10.6 nM, donor 3 [1]: 1 fold
fold activation, T-cell proliferation, plate-bound Ab 10.6 nM, donor 4 [1]: 2 fold
fold activation, T-cell proliferation, plate-bound Ab 10.6 nM, donor 5 [1]: 1 fold
fold activation, T-cell proliferation, plate-bound Ab 10.6 nM, donor 6 [1]: 3 fold
fold activation, T-cell proliferation, plate-bound Ab 10.6 nM, donor 7 [1]: 2 fold
fold activation, T-cell proliferation, plate-bound Ab 10.6 nM, donor 8 [1]: 1 fold
fold activation, T-cell proliferation, plate-bound Ab 10.6 nM, mean [1]: 2 fold
fold activation, T-cell proliferation, 22 nM, non-anchored, donor 1 [2]: 0.7 fold
fold activation, T-cell proliferation, 22 nM, non-anchored, donor 2 [2]: 1 fold
fold activation, T-cell proliferation, 22 nM, non-anchored, donor 3 [2]: 0.9 fold
fold activation, T-cell proliferation, 22 nM, non-anchored, donor 4 [2]: 1 fold
fold activation, T-cell proliferation, 22 nM, non-anchored, mean [2]: 0.9 fold
% Activation, NF-kB-Luc, non-anchored [3]: 20%
% Blocking, NF-kB-Luc, non-anchored [3]: 70%
EC50, hGITR activation, NF-kB-Luc, non-anchored [3]: 1.1 nM
IC50, blocking of hGITRL stimulation, NF-kB-Luc, non-anchored [3]: 1.4 nM
fold activation, T-cell proliferation, 33 nM, FcgR anchored, donor 1 [4]: 1.2 fold
fold activation, T-cell proliferation, 33 nM, FcgR anchored, donor 2 [4]: 0.8 fold
fold activation, T-cell proliferation, 33 nM, FcgR anchored, donor 3 [4]: 1 fold
fold activation, T-cell proliferation, 33 nM, FcgR anchored, donor 4 [4]: 1.5 fold
fold activation, T-cell proliferation, 33 nM, FcgR anchored, donor 5 [4]: 1.5 fold
fold activation, T-cell proliferation, 33 nM, FcgR anchored, mean [4]: 1.2 fold
Kd [5]: 0.427 nM
koff [5]: 0.000338 s⁻¹
kon [5]: 791000 M⁻¹ s⁻¹
t½ [5]: 34.2 min
Kd [6]: 155 nM
koff [6]: 0.0205 s⁻¹
kon [6]: 133000 M⁻¹ s⁻¹
t½ [6]: 0.6 min
Kd [7]: 52.4 nM
koff [7]: 0.0166 s⁻¹
kon [7]: 317000 M⁻¹ s⁻¹
t½ [7]: 0.7 min
Average Signal (RLU) at 100 nM [8]: 8840 RLU
EC50 [8]: 0.6 nM
B3: H4H14525P (antibody, human IgG4, V domains shown)
VH: QVQLVESGGGVVQPGRSLRLSCAASGFTFSSYGMHWVRQAPGKGLEWVAVIWYVGSNKYYGESVKGRFTISRDNSKNTLYLQMNSLRDEDTAIYYCARGGQLGSFYYYGMDVWGQGTTVTVSS
VL: DIQMTQSPSSLSASVGDRVTITCRASQGIRNDLGWYQQKPGKAPKRLIYDVSSLQSGVPSRFSGSGSGTEFTLTISSLQPEDLATYYCLQHNSYPWTFGQGTKVEIK
notes: human IgG4 (H4H)
